# Results taken from the supplement of paper PMC12764529.
# ± gives the half width of the 95% confidence interval.
# Tests used:
# [1] = folding stability dG unfold from trypsin proteolysis; higher = more stable
# Procedure, shortened: (§1)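 Designed mini-proteins (under 80 residues, no cysteine) in a PA-tagged cDNA display construct were digested with trypsin and chymotrypsin. Each protease was used at 11 concentrations (threefold dilutions) plus a no-protease condition, followed by sequencing. K50 was inferred by Bayesian fitting of sequencing counts, and unfolding free energy was derived against a sequence-predicted unfolded-state K50 and a shared folded-state K50, per protease or combined. Only designs with AlphaFold2 dimer inter-PAE above 15 were kept.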
# [2] = folding stability dG unfold from chymotrypsin proteolysis; higher = more stable
# Procedure, shortened: as §1
# [3] = folding stability dG unfold (combined trypsin and chymotrypsin); higher = more stable
# Procedure, shortened: as §1
Sequence,folding stability dG unfold [1],folding stability dG unfold [2],folding stability dG unfold [3]
SAVITYPIPDDKPTLILEPLPGSESLLILSTKREKIPNGTYKVEALVVRYEPALGASVEEKVELIEPIGSAG [r14_591_JUSTAS],-0.819 ± 0.46 kcal/mol,-0.216 ± 0.56 kcal/mol,-0.239 ± 0.22 kcal/mol
SAGGSAGGMARVLRVEPAEGDDTFYVEVEFYDPATGEVTLGRFRIPADRPDLATNIPADSWVVLSAGGSAGG [r6_978_TrMRF],0.66 ± 0.04 kcal/mol,1.56 ± 0.059 kcal/mol,1.25 ± 0.046 kcal/mol
SAGGSAGGSALAEELAAKYPGLQVEVTRVEVEREVTDADGRKRTERVERLEIRVVKPGEELSAGGSAGGSAG [r3_358_TrROS_Hall],0.5 ± 0.034 kcal/mol,-0.0574 ± 0.06 kcal/mol,0.164 ± 0.18 kcal/mol
SAGKMYLIVIKVDGKEYVIVIPEEEMSEEEIRKLISEELGISEEEVEIVEIVPVEPGESVEEALKKALESAG [r5_900_TrROS_Hall],2.77 ± 0.14 kcal/mol,4.23 ± 0.074 kcal/mol,3.94 ± 0.15 kcal/mol
SAGPGWIMIRVKIKMRKWKDGKPVRRPIEIPIMAPADGDPEAARRKAEELAEFLAQMYGMEIEDVEIFPSAG [r5_497_TrROS],3.07 ± 0.092 kcal/mol,3.74 ± 0.057 kcal/mol,3.55 ± 0.065 kcal/mol
PFPIYVKIERDGKPVREEPIPMDELQEMPVEEVIEYARELLRQFPGRKYKVEVYFPGGPREFEIKDPEDIKS [r1_477_TrROS],0.496 ± 0.071 kcal/mol,1.58 ± 0.14 kcal/mol,1.28 ± 0.16 kcal/mol
SAGMMYKITIKTKNGEKIEIEIPAEELENLTEEQLKELAKELAKKLEEEGIEVEKVEVKIEPVKPEELSAGG [r19_334_TrROS_Hall],3.3 ± 0.23 kcal/mol,2.93 ± 0.058 kcal/mol,3.04 ± 0.13 kcal/mol
SAGGSAGGSILVIKIKFPGNGRPIHYPIKDPEDFDRVLKKAKERFPGYDKDNIKEAEIYPLPPSAGGSAGGS [r12_852_TrROS],-0.436 ± 0.22 kcal/mol,-0.00689 ± 0.29 kcal/mol,-0.0696 ± 0.17 kcal/mol
SAGGSAGGSAGGFVLTFTLPDSVVRITLPEDANPEEIKQRLLEEHGVPIELRLIPPSNPLSAGGSAGGSAGG [r11_805_JUSTAS],0.726 ± 0.12 kcal/mol,0.664 ± 0.38 kcal/mol,0.782 ± 0.2 kcal/mol
SAGGSAGGSPPGWTIMMFEITISITVPRVEVYDPKDGKPRAEVPYVRVSIPIPIFIIFPAGAFSAGGSAGGS [r12_600_TrROS],2.93 ± 0.17 kcal/mol,4.24 ± 0.12 kcal/mol,3.77 ± 0.11 kcal/mol
SAGGSAGGSAGDPKKKPPKPILGFELAEFEITTEDGTKYKVKALIIYFPDTGTKVIFVLGSAGGSAGGSAGG [r11_1024_TrMRF],2.78 ± 0.13 kcal/mol,4.73 ± 0.13 kcal/mol,4.33 ± 0.18 kcal/mol
SASPPRRFMIKVTYPDGKTTLSYGDDPEQTRAALEAQIAEEHPGNYTIEYTELSPDEWASPEKAEALLSSAG [r14_900_JUSTAS],2.27 ± 0.034 kcal/mol,1.71 ± 0.073 kcal/mol,2.01 ± 0.078 kcal/mol
SAEVETVTLELELPEDGYRVTITVTYNKETGEVTVEIRIINPNGEEKTITIKVKSLEEALKKLEFKLLPSAG [r14_749_TrROS_Hall],2.13 ± 0.056 kcal/mol,2.45 ± 0.054 kcal/mol,2.36 ± 0.13 kcal/mol
SAGGSAGGSAGPTLTLTLPPGKLSPEFLEALAAQGYTLGEVTVTEVPEDDTVVVTVTTAPSAGGSAGGSAGG [r11_345_JUSTAS],1.4 ± 0.069 kcal/mol,0.623 ± 0.12 kcal/mol,1.1 ± 0.069 kcal/mol
SAGGSAGGSAAVILPEGTLYFTLPDGSRAAATVDPATGTVHIRLYSPDGVPLAEADIPIDPSAGGSAGGSAG [r3_447_TrMRF],0.947 ± 0.024 kcal/mol,2.26 ± 0.037 kcal/mol,1.83 ± 0.07 kcal/mol
SAGGSAGGRWYIMIEIRFPGNGRQFSFMIPIPPGDEVDIKLDELAEWFGFPNVKVDIQVMPLEKSAGGSAGG [r6_722_TrROS],3.41 ± 0.3 kcal/mol,4.75 ± 0.12 kcal/mol,4.45 ± 0.18 kcal/mol
SAPPYYIVIKFKMELPPPTPEDAKEYDPDGEVRRTTVEMTFVIPIPPEDLEDLKDFMQSLGIEEIEIFKSAG [r14_509_TrROS],2.05 ± 0.087 kcal/mol,2.75 ± 0.032 kcal/mol,2.56 ± 0.15 kcal/mol
SAGGAEIKITSIEYNPETKTITAKVEITVDGKKFTFTITIKLKAAPAPPTVTVTDKDIPGKTVTLTKTSAGG [r13_615_TrROS_Hall],1.51 ± 0.14 kcal/mol,2.38 ± 0.13 kcal/mol,2.1 ± 0.24 kcal/mol
SAGGKTIVIKVKTKEQAKALAEELAKKLKDAGYTVTVTYDEETGVVTVTVTVKVNGKTKKITLVLELPSAGG [r13_641_TrROS_Hall],3.51 ± 0.074 kcal/mol,3.05 ± 0.043 kcal/mol,3.26 ± 0.038 kcal/mol
SMSREELREYARAHPDRPLALILPGKKTLLLFDPATGAEREEDITSVEEAKERLAAQPVAVVEVVSAELLSA [r9_775_JUSTAS],-0.439 ± 0.37 kcal/mol,0.499 ± 0.085 kcal/mol,0.294 ± 0.11 kcal/mol
SAGMTIEELRSLPPGARVTSVEYDEETEEVTVTVERTREDGKTETLTLTFRSREELEAALKAGADRIVFSAG [r5_905_TrROS_Hall],1.731 ± 0.017 kcal/mol,1.16 ± 0.059 kcal/mol,1.54 ± 0.052 kcal/mol

Sequence,folding stability dG unfold [1],folding stability dG unfold [2],folding stability dG unfold [3]
MVELVEVTRENGLVTVTVANPIPGATLTVEVRDPEGKVLASSTSPSPTVTVTAEIPPDEDFSVTVTQTPPAS [r1_382_JUSTAS],3.43 ± 0.14 kcal/mol,3.99 ± 0.2 kcal/mol,> 6 kcal/mol
SAGGSAGGSGSMTTTTDPNSDITVSSIGSPSGPPVTATLNPKTGTVTVTVGGTPVTIPLDALSSAGGSAGGS [r12_650_JUSTAS],0.331 ± 0.059 kcal/mol,1.32 ± 0.034 kcal/mol,0.987 ± 0.045 kcal/mol
SAGGSAGGGRYLVLIEFENGFPLAYVFPSPEDVVEHTRLLEERLGYPIKRIEVYKIDPNGKAYASAGGSAGG [r6_162_TrMRF],2.41 ± 0.053 kcal/mol,2.42 ± 0.12 kcal/mol,2.53 ± 0.086 kcal/mol
SAGGSAGGSYYMIEIEFPDTGQRITFPFKSLEEAKEFLPPGAPIREIEVQPIKPPVDPEQQNESAGGSAGGS [r12_851_TrROS],0.809 ± 0.054 kcal/mol,1.31 ± 0.12 kcal/mol,1.24 ± 0.11 kcal/mol
SAGGSAIPGMPIKEIARALQDKFPPGKPPQIKIRNKNGETKTFEPNKTIDDIPMDGVVEIEIEFRPSAGGSA [r15_50_TrROS],-0.52 ± 0.62 kcal/mol,0.0124 ± 0.075 kcal/mol,0.0509 ± 0.19 kcal/mol
SAGGSAGGSMDLKDIKILEAYDPGGPVVVTFLNEGKPYTVTIPPENAQILLDLLKEGNIEIKPSAGGSAGGS [r12_604_TrMRF],0.773 ± 0.032 kcal/mol,1.54 ± 0.047 kcal/mol,1.25 ± 0.054 kcal/mol
SVDPAKEKVVLRFTVTFPVPPELGPITADELAALVREILEAFGYEIVSVTVTVEGDRVTVTVEAVFDKRGSA [r9_1134_TrMRF],3.76 ± 0.11 kcal/mol,5.21 ± 0.086 kcal/mol,5.01 ± 0.091 kcal/mol
SAGGSASMSKTTTETSPDSETTTTTYYPNGTVTTTKTTTVGEGTTTTTTTTKVLFIPGPGVLVPEPSAGGSA [r15_746_JUSTAS],-0.174 ± 0.045 kcal/mol,0.514 ± 0.062 kcal/mol,0.259 ± 0.046 kcal/mol
SAGGSAGGSAPPVKTITVELVFFNPETQEVFVLRAEVRLLPDGTLEIRTEIERVKVEPGAVLLSAGGSAGGS [r12_116_TrROS_Hall],1.64 ± 0.096 kcal/mol,2.22 ± 0.11 kcal/mol,2.09 ± 0.15 kcal/mol
SASLEELLAELPFDAEVETKDEEVVVKITNPENPDPNVSYTFNIPSSSGVPITVNVTEVEGGTKSVKALSAG [r14_401_JUSTAS],-0.448 ± 0.15 kcal/mol,-0.108 ± 0.24 kcal/mol,-0.172 ± 0.21 kcal/mol
SAGGSAGGSAGGLTFRLPDGTRVRVRVELNEDGELRITVEVEPLPPPPPKVEFYSEEELKSAGGSAGGSAGG [r7_660_TrROS_Hall],2.72 ± 0.076 kcal/mol,3.06 ± 0.08 kcal/mol,2.92 ± 0.12 kcal/mol
SAGGSAGGSAGTIVITQSPDGTWRAYYEDGTAEEFDSIDDLKKALEEHYPDAKTVIFKPASAGGSAGGSAGG [r11_806_TrMRF],3.33 ± 0.15 kcal/mol,2.99 ± 0.17 kcal/mol,3.15 ± 0.17 kcal/mol
SMTLTIDLDPSVPYLVRIHFVNEDGEPYEADALTTRTPDGTAFVDIALPDDSIPPGADIKILSVEVIPLDSA [r9_359_TrMRF],1.63 ± 0.019 kcal/mol,2.1 ± 0.054 kcal/mol,1.96 ± 0.051 kcal/mol
SPLKPNDIRPIKFTSPIRNPDNGRPFRIKVEIWVMPEDPMVIIKDEIEPPNGRTREHTFWIPPGQKIEIPSA [r9_88_TrROS],0.261 ± 0.13 kcal/mol,0.358 ± 0.33 kcal/mol,0.295 ± 0.3 kcal/mol
SAMKTIEIEIELDELKNLTPEELEEKAKELAEELAKKLAEEKGLEVVSVKVEVVEKDGKLVVKVTVEVKSAG [r14_310_TrROS_Hall],3.59 ± 0.24 kcal/mol,2.83 ± 0.26 kcal/mol,3.66 ± 0.71 kcal/mol
SAMKVTVKPTTLPDGTTVVVTTEPDKIVAYGTYNGDSFTSESLPDGTVVTTAKKPGGVLVTSPTDPNLESAG [r14_213_JUSTAS],0.26 ± 0.02 kcal/mol,0.112 ± 0.14 kcal/mol,0.265 ± 0.074 kcal/mol
SAGGSAGGSVEDVVKKENVEKAEVKPEPNPPVTLTKITSKNPNSNTTLTGTLVVVDPKNGLLLSAGGSAGGS [r12_133_JUSTAS],-0.344 ± 0.12 kcal/mol,0.157 ± 0.21 kcal/mol,0.0723 ± 0.11 kcal/mol
SAGGSAGGSKKTVLVRITVTLPNGEKREIELEVEVDSVEDLKELLKKLPLPPGMKVTIEVVPASAGGSAGGS [r20_162_TrROS_Hall],4.48 ± 0.31 kcal/mol,3.4 ± 0.2 kcal/mol,4.16 ± 0.31 kcal/mol
SAGGSAGGSKPTLTLEIVLPPEMTLEQLEELARALAEELGLDEVEVRVERRPDGYLRITITVKSAGGSAGGS [r20_208_TrROS_Hall],3.63 ± 0.18 kcal/mol,3.45 ± 0.091 kcal/mol,3.59 ± 0.12 kcal/mol
SAGGKNITIDDITFQPQRDNGKPRYYMEVKVELPNGNPIPITMPMDRMQNNGMSPKTFAKWIAKWLLSAGGS [r16_625_TrROS],1.04 ± 0.13 kcal/mol,1.5 ± 0.22 kcal/mol,1.3 ± 0.12 kcal/mol
SAGGKTKEIELEILFEPVKVKKKKKNKNGKEEEVEEKEFKPVLVRITLKIENGKITEIKIEVEKLDDLSAGG [r13_935_TrROS_Hall],2.05 ± 0.077 kcal/mol,3.37 ± 0.11 kcal/mol,2.93 ± 0.26 kcal/mol
